{
  "source": "patent US20180112005A1",
  "about": "(published 2018)",
  "binders": {"B1": {"name": "Antibody A-1, phage-displayed Fab clone (Fab, V domains shown)", "VH": "EVQLVESGGGLVQPGGSLRLSCAASGFTFSSYWIHWVRQAPGKGLEWVARINPPNGSAHYADSVKGRFTISADTSKNTAYLQMNSLRAEDTAVYYCARGSGFRWVMDYWGQGTLVTVSS", "VL": "DIQMTQSPSSLSASVGDRVTITCRASQDVSTAVAWYQQKPGKAPKLLIYSASFLYSGVPSRFSGSGSGTDFTLTISSLQPEDFATYYCQQSYTTPATFGQGTKVEIKR"}, "B2": {"name": "Antibody A-1 (antibody, IgG1, V domains shown)", "VH": "B1 VH", "VL": "B1 VL", "notes": "also called Antibody A-1-hIgG1"}, "B3": {"name": "Antibody A-2 (antibody, IgG1, V domains shown)", "VH": "B1 VH with G56R, A58N, H59Q", "VL": "B1 VL with S91F, A96S", "notes": "also called Antibody A-2-hIgG1"}, "B4": {"name": "Antibody A (antibody, IgG1, V domains shown)", "VH": "B1 VH with P54S, A58T, H59N", "VL": "B1 VL with A96P", "notes": "also called anti-Notch1 NRR Antibody A; Antibody A-hIgG1"}, "B5": {"name": "Antibody A-2, phage-displayed Fab clone (Fab, V domains shown)", "VH": "B1 VH with G56R, A58N, H59Q", "VL": "B1 VL with S91F, A96S"}, "B6": {"name": "Antibody A-3 (antibody, V domains shown)", "VH": "B1 VH with P54A, A58T, H59R", "VL": "B1 VL with Y92F, T93S"}, "B7": {"name": "Antibody A-3, phage-displayed Fab clone (Fab, V domains shown)", "VH": "B1 VH with P54A, A58T, H59R", "VL": "B1 VL with Y92F, T93S"}},
  "key": {"[1]": {"biological_target": "T1, hFLAG-EGF34+NRR-His6 (101V), the human Notch1 NRR immunogen (human Notch1 V1307-Q1733) (human, UniProt P46531 1307-1733)", "T1 construct": "Secreted from Sf-9 cells; also called hNotch1 NRR; human NRR1", "experiment": "competitive phage-binding ELISA; phage-displayed Fab pre-mixed with serial dilutions of soluble NRR1, then captured on NRR1-coated plate", "procedure": "(§1) To identify the phage antibodies that bound to both human and murine Notch1 NRR, all unique clones were tested for binding to human and murine Notch1 by ELISA. The affinities of phage antibodies were ranked using single spot competition ELISA as described below in this Example. The phage antibody IC50 values were further determined using competitive phage-binding ELISA essentially described in Lee, C. V., et al. (2004) J Mol Biol 340, 1073-93. Briefly, NUNC 96 well Maxisorp immunoplates were coated overnight at 4° C. with 1 μg/ml human NRR1 or murine NRR1, and were blocked for 1 hour at room temperature with blocking buffer PBST (PBS and 1% BSA and 0.05% Tween 20). Phage was mixed with serial dilution of human or murine NRR1 at room temperature for 1 hour before the mixture was added to human and murine NRR1 coated plate. Bound phage were detected with anti-M13 HRP conjugates, developed with TMB substrate for approximately 5 minutes, quenched with 1M H₃PO₄, and read spectrophotometrically at 450 nm.\n(§2) In comparison to the OD_{450 nm} reduction (%) of the well of parental phage (100%), clones that had the OD_{450 nm} reduction (%) lower than 50% were picked for sequence analysis. Unique clones were selected for phage preparation to determine binding affinity (phage IC50) by comparison with parental clones (Table 4)."}, "[2]": {"biological_target": "T2, mFLAG-EGF34+NRR-His6, the murine Notch1 NRR immunogen (mouse Notch1 V1307-Q1723) (mouse, UniProt Q01705 1307-1723)", "T2 construct": "N-terminal FLAG tag and C-terminal His tag, expressed in 293-F cells; also called mNotch1 NRR; mouse Notch1 NRR", "T2 sequence (Q01705 other isoform, or with tags, fused parts or gaps)": "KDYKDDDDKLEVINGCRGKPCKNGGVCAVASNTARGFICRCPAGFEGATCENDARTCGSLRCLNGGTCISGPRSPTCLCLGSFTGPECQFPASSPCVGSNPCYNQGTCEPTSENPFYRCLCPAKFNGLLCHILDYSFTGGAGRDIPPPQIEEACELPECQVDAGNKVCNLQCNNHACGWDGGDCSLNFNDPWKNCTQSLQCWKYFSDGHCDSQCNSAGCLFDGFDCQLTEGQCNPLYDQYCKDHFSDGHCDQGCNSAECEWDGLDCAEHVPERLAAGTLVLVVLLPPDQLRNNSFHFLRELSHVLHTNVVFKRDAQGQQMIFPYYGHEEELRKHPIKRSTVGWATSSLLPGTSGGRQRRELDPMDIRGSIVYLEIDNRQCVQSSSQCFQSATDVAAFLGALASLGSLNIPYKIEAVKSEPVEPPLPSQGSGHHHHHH", "experiment": "competitive phage-binding ELISA; phage-displayed Fab pre-mixed with serial dilutions of soluble NRR1, then captured on NRR1-coated plate", "procedure": "as §1, §2"}, "[3]": {"biological_target": "T1, hFLAG-EGF34+NRR-His6 (101V), the human …", "experiment": "SPR (BIAcore-3000), IgG captured on rabbit anti-human IgG, NRR1-ECD protein injected 3.9-500 nM, 25 C, 1:1 Langmuir", "procedure": "(§3) To further characterize the binding affinity and binding kinetics of the anti-Notch1 NRR Mabs, surface plasmon resonance (SRP) measurement with a BIAcore™-3000 was used (BIAcore, Inc., Piscataway, N.J.). Briefly, carboxymethylated dextran biosensor chips (CM5, BIAcore Inc.) were activated with N-ethyl-N′-(3-dimethylaminopropyl)-carbodiimide hydrochloride (EDC) and N-hydroxysuccinimide (NHS) according to the supplier's instructions. Rabbit anti human antibody (Pierce) was diluted with 10 mM sodium acetate, pH 4.8, into 20 μg/ml before injection at a flow rate of 5 μl/minute to achieve approximately 3000 response units (RU) of coupled antibody. Next, 1M ethanolamine was injected to block unreacted groups. Anti-NRR1 mab (formatted as a full-length IgG) was captured by rabbit anti-human IgG coated on the chips to achieve approximately 200 response units (RU). For kinetics measurements, two-fold serial dilutions of human NRR1-ECD or murine NRR1-ECD proteins (3.9 nM to 500 nM) were injected in PBT buffer (PBS with 0.05% Tween 20) at 25° C. with a flow rate of 30 μl/min. Association rates (kₒₙ) and dissociation rates (koff) were calculated using a simple one-to-one Langmuir binding model (BIAcore Evaluation Software version 3.2). The equilibrium dissociation constant (KD) was calculated as the ratio koff/kₒₙ.\n(§4) “NA” signifies that the measurement was not performed."}, "[4]": {"biological_target": "T2, mFLAG-EGF34+NRR-His6, the murine Notch1 …", "experiment": "SPR (BIAcore-3000), IgG captured on rabbit anti-human IgG, NRR1-ECD protein injected 3.9-500 nM, 25 C, 1:1 Langmuir", "procedure": "as §3, §4"}, "[5]": {"biological_target": "human Notch1 expressed on NIH-3T3 cells (human, UniProt P46531 19-2555)", "experiment": "cell-based or functional assay"}, "[6]": {"biological_target": "T3, human Notch2 NRR (human, UniProt Q04721 1425-1677)", "T3 construct": "domain: NRR; It is split here into the two species; also called human NRR2", "T3 sequence (looked up)": "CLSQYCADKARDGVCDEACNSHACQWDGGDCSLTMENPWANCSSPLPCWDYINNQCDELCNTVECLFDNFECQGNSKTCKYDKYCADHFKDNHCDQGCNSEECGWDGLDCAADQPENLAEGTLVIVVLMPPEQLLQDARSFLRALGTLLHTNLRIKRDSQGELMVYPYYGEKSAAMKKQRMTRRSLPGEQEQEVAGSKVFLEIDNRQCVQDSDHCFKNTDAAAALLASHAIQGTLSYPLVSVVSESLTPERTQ", "experiment": "cross-reactivity test of the IgG (Table 3; method not detailed)"}, "[7]": {"biological_target": "T4, murine Notch2 NRR (mouse, UniProt O35516 1425-1679)", "T4 construct": "domain: NRR; It is split here into the two species; also called mouse NRR2", "T4 sequence (looked up)": "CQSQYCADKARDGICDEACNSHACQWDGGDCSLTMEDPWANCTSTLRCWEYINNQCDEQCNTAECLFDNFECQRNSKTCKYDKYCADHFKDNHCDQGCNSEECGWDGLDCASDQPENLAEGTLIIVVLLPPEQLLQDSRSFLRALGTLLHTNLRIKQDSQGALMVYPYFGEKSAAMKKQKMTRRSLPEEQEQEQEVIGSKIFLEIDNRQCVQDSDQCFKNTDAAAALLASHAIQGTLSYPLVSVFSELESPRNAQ", "experiment": "cross-reactivity test of the IgG (Table 3; method not detailed)"}, "[8]": {"biological_target": "T5, human Notch3 NRR (human, UniProt Q9UM47 1378-1643, limits assumed)", "T5 construct": "domain: NRR; It is split here into the two species; also called human NRR3", "T5 sequence (Q9UM47 1378-1643 limits assumed)": "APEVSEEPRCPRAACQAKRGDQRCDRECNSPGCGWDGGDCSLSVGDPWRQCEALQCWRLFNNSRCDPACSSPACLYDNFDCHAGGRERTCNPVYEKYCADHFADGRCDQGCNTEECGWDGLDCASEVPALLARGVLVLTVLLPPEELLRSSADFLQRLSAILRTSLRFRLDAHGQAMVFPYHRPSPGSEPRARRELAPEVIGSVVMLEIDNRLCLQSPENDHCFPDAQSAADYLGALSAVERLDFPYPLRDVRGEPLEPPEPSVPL", "experiment": "cross-reactivity test of the IgG (Table 3; method not detailed)"}, "[9]": {"biological_target": "T6, murine Notch3 NRR (mouse, UniProt Q61982 1379-1643, limits assumed)", "T6 construct": "domain: NRR; It is split here into the two species; also called mouse NRR3", "T6 sequence (Q61982 1379-1643 limits assumed)": "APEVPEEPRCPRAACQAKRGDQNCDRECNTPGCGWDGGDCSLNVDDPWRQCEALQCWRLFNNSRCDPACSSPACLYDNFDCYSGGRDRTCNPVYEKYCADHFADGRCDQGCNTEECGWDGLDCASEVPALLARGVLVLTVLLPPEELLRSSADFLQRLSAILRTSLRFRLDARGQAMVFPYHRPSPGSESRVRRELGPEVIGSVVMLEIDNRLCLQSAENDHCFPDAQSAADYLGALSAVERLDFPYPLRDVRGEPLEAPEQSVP", "experiment": "cross-reactivity test of the IgG (Table 3; method not detailed)"}, "[10]": {"biological_target": "T7, human Notch4 NRR (human, UniProt Q99466 1170-1447, limits assumed)", "T7 construct": "domain: NRR; It is split here into the two species; also called human NRR4", "T7 sequence (looked up)": "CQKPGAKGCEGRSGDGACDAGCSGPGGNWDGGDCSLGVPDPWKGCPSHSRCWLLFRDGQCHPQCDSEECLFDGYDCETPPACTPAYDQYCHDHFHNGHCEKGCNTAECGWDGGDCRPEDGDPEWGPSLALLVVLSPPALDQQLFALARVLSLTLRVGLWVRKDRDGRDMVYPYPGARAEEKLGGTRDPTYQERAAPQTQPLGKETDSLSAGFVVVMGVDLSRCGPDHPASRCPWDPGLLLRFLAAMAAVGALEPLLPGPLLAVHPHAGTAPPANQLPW", "experiment": "cross-reactivity test of the IgG (Table 3; method not detailed)"}, "[11]": {"biological_target": "T8, murine Notch4 NRR (mouse, UniProt P31695 1166-1443, limits assumed)", "T8 construct": "domain: NRR; It is split here into the two species; also called mouse NRR4", "T8 sequence (looked up)": "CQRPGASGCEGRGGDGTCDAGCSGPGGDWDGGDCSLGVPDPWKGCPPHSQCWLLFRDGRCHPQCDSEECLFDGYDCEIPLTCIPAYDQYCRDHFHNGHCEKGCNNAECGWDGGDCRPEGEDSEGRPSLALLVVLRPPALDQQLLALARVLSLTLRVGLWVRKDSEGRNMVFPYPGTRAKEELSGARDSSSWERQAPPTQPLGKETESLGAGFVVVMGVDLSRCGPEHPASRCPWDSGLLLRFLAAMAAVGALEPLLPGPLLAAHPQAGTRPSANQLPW", "experiment": "cross-reactivity test of the IgG (Table 3; method not detailed)"}},
  "note": "Positions count from the first letter of the chain named.",
  "data": [
    {"binder": "B1", "values": [
      {"measurement": "IC50", "setting": "[1]", "result": 0.8, "unit": "nM"},
      {"measurement": "IC50", "setting": "[2]", "result": 0.6, "unit": "nM"}
    ]},
    {"binder": "B2", "values": [
      {"measurement": "Kd", "setting": "[3]", "result": 3.43, "unit": "nM"},
      {"measurement": "koff", "setting": "[3]", "result": 0.00023, "unit": "s⁻¹"},
      {"measurement": "kon", "setting": "[3]", "result": 67000, "unit": "M⁻¹ s⁻¹"},
      {"measurement": "Kd", "setting": "[4]", "result": 3.88, "unit": "nM"},
      {"measurement": "koff", "setting": "[4]", "result": 0.00033, "unit": "s⁻¹"},
      {"measurement": "kon", "setting": "[4]", "result": 85000, "unit": "M⁻¹ s⁻¹"}
    ]},
    {"binder": "B3", "values": [
      {"measurement": "Kd", "setting": "[3]", "result": 2.53, "unit": "nM"},
      {"measurement": "koff", "setting": "[3]", "result": 0.00022, "unit": "s⁻¹"},
      {"measurement": "kon", "setting": "[3]", "result": 87000, "unit": "M⁻¹ s⁻¹"},
      {"measurement": "Kd", "setting": "[4]", "result": 3.09, "unit": "nM"},
      {"measurement": "koff", "setting": "[4]", "result": 0.00034, "unit": "s⁻¹"},
      {"measurement": "kon", "setting": "[4]", "result": 110000, "unit": "M⁻¹ s⁻¹"}
    ]},
    {"binder": "B4", "values": [
      {"measurement": "Co-culture blocking, IC50", "setting": "[5]", "result": "~0.1", "unit": "mg/L"},
      {"measurement": "binding result", "setting": "[6]", "result": "no binding"},
      {"measurement": "binding result", "setting": "[7]", "result": "no binding"},
      {"measurement": "binding result", "setting": "[8]", "result": "no binding"},
      {"measurement": "binding result", "setting": "[9]", "result": "no binding"},
      {"measurement": "binding result", "setting": "[10]", "result": "no binding"},
      {"measurement": "binding result", "setting": "[11]", "result": "no binding"},
      {"measurement": "Kd", "setting": "[3]", "result": 134, "unit": "nM"},
      {"measurement": "koff", "setting": "[3]", "result": 0.011, "unit": "s⁻¹"},
      {"measurement": "kon", "setting": "[3]", "result": 82000, "unit": "M⁻¹ s⁻¹"},
      {"measurement": "Kd", "setting": "[4]", "result": 231, "unit": "nM"},
      {"measurement": "koff", "setting": "[4]", "result": 0.021, "unit": "s⁻¹"},
      {"measurement": "kon", "setting": "[4]", "result": 91000, "unit": "M⁻¹ s⁻¹"}
    ]},
    {"binder": "B5", "values": [
      {"measurement": "IC50", "setting": "[1]", "result": 0.5, "unit": "nM"},
      {"measurement": "IC50", "setting": "[2]", "result": 0.5, "unit": "nM"}
    ]},
    {"binder": "B6", "values": [
      {"measurement": "Kd", "setting": "[3]", "result": 5.88, "unit": "nM"},
      {"measurement": "koff", "setting": "[3]", "result": 0.0004, "unit": "s⁻¹"},
      {"measurement": "kon", "setting": "[3]", "result": 68000, "unit": "M⁻¹ s⁻¹"},
      {"measurement": "Kd", "setting": "[4]", "result": 13, "unit": "nM"},
      {"measurement": "koff", "setting": "[4]", "result": 0.0012, "unit": "s⁻¹"},
      {"measurement": "kon", "setting": "[4]", "result": 92000, "unit": "M⁻¹ s⁻¹"}
    ]},
    {"binder": "B7", "values": [
      {"measurement": "IC50", "setting": "[1]", "result": 0.5, "unit": "nM"},
      {"measurement": "IC50", "setting": "[2]", "result": 2.5, "unit": "nM"}
    ]}
  ]
}
